Measured values published in patent US20110081662A1, “SCREENING METHODS FOR BONE MORPHOGENETIC MIMETICS” (THRASOS THERAPEUTICS, INC., priority 2000, published 2011).

Assays:
ECD of daf-4 receptor = biological target: T1, ECD of daf-4 receptor (Caenorhabditis elegans, UniProt P50488); experiment: Type II receptor-based HTS rapid solid-phase assay; assay type: binding, C. elegans; settings: ECD immobilized on PVDF membrane, 18 h, room temperature
T1 construct: 1 includes additional portions on the N and C terminus; made in house; host or cells: transfected DHFR(-) CHO cell line PJ511.9.8, purified from conditioned medium
T1 sequence (P50488 with tags, fused parts or gaps): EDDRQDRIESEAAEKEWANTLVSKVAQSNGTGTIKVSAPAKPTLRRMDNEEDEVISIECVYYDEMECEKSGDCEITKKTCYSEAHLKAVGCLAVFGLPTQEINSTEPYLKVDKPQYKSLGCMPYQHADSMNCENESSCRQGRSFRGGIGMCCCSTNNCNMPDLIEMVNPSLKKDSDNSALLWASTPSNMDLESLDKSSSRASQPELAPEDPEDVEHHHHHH
Excerpt: Preparation of type II Receptor ECD: Highly purified extracellular domain (ECD) of the type II receptor daf-4 was used in this assay. The ECD of the daf-4 receptor was cloned and vectors (pCMV5 expression vectors, daf-4 sequence including the mammalian consensus start site and the hexa-histidine sequence tag) are constructed for the expression of this molecule in mammalian cells. In this construct, the ECD has been linked to a hexa-Histadine sequence tag for subsequent purification and detection. The transfected DHFR(−) CHO cell line PJ511.9.8 has been used for the daf-4 expression as outlined below. This cloning method can also be utilized with other bone morphogenetic proteins.
Purification of daf-4 ECD: A purification protocol to process large volumes of conditioned media (3.5 L/week) was developed. The procedure involves initial isolation of daf-4 ECD by using Talon (Pharmacia Tech.) Immobilized metal affinity column. As daf-4 ECD protein is linked to a hexa-His sequence, the protein is bound to the metal affinity column and is subsequently eluted by imidazoic ([…]) containing buffer. […] The purified preparation was analyzed by reversed phase HPLC. […]
HTS assay procedure: BMP-7 binding activity was determined by a rapid solid-phase assay using ^125I-labeled BMP-7 as ligand and highly purified ECD of daf-4 as type II receptor. […]

daf-4 ECD = biological target: T2, daf-4 ECD (Caenorhabditis elegans, UniProt P50488); experiment: BMP binding to purified daf-4 ECD (ligand blot, Scatchard analysis); parameters: species or system C. elegans
T2 construct: 1 includes additional portions on the N and C terminus; made in house; host or cells: transfected DHFR(-) CHO cell line PJ511.9.8, purified from conditioned medium
T2 sequence (P50488 with tags, fused parts or gaps): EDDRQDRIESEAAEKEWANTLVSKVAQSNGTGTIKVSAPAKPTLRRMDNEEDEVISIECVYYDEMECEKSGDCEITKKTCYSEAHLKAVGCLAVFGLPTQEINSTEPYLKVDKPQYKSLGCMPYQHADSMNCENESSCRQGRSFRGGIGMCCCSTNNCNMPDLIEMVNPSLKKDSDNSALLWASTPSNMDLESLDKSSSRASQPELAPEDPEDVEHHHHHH
Excerpt: A novel ligand-blot technique was developed to evaluate the binding of BMP-7 to the purified daf-4 ECD.

bone formation = experiment: Subcutaneous implantation assay in rodents (bone formation); assay type: in vivo; settings: rat, subcutaneous implant, day 14, data not shown
Method: Subcutaneous implantation assay in rodents: This assay is based on the ability of BMP-7 to induce bone formation in the rat. […] Briefly, 1.2 mg of bovine bone matrix (collagen carrier) was added to BMP-7 or test peptide or small molecule or BMP-7 and test peptide in 200 μl of 50% acetonitrile, […]. A minimum of 6 animals per group were used. The day of implantation is designated as day 0 of the assay. Implants were removed on day 14 for evaluation. Bone-forming activity in the implants was monitored by the calcium content essentially as described by Reddi, A. H. & Huggins, C. B. (1972) PNAS USA 69, 1601-1605. For histology, implants were fixed in Bouin's solution, embedded in JB4 plastic medium, cut into 1 um sections, and stained by toluidine blue. […] (Data not shown)

B1: BMP-7: homodimeric glycoprotein of the TGF-β superfamily; unlabeled standard (protein)
chain: STGSKQRSQNRSKTPKNQEALRMANVAENSSSDQRQACKKHELYVSFRDLGWQDWIIAPEGYAAYYCEGECAFPLNSYMNATNHAIVQTLVHFINPETVPKPCCAPTQLNAISVLYFDDSSNVILKKYRNMVVRACGCH
ECD of daf-4 receptor
  inhibition of 125I-labeled BMP-7 binding to the ECD of daf-4 receptor: 78%
daf-4 ECD
  binding to extracellular domain of daf-4: readily binds
Bone formation
  bone formation in implants: induced bone formation
